Legend:
[1] = Antibody buffering of lysozyme: total 14C-lysozyme in rat plasma; type: in vivo
Protocol: (§1) Rats (300 g Sprague-Dawley males, Zivic Laboratories, Zelionople, Pa.) were implanted with a jugular vein cannula. The rats were freely moving throughout the experiment and were allowed access to food and water. Samples were prepared for infusion consisting of 43 μg ^14C-lysozyme with or without 450 μg D1.3 antibody. The volume was brought to 1 ml using sterile normal saline and the sample was incubated at 37° C. prior to use. The sample was infused through the jugular cannula over 5 minutes using an HP infusion pump. Following the infusion, the cannula was flushed with 0.2 ml of heparinized saline (250 units/ml) to reduce the risk of clotting. […] Blood samples (0.5 ml) were withdrawn from the cannula at various timepoints. The blood was immediately centrifuged to separate out the plasma. Plasma (0.1 ml) was mixed with 5 ml scintillation fluid and counted. Another 0.1 ml was used in bound vs. free lysozyme experiments described herein. The cellular pellet was mixed with scintillation fluid and counted also.
Sprague-Dawley rats implanted with a jugular cannula were infused with 43 μg ^14C-lysozyme and either 450 μg or 900 μg of D1.3 antibody. The volume infused was brought up to 1 ml using sterile normal saline. The samples were prepared and infused and timepoints were taken and analyzed as described above. Bound vs. free separation analyses were not performed.
Sprague-Dawley rats implanted with a jugular cannula were infused with 450 μg of D1.3 antibody and either 43 μg or 430 μg of ^14C-lysozyme. The samples were prepared, infused, and timepoints were taken and analyzed as described above.
Two samples were prepared for infusion. The first sample, consisting of 450 μg D1.3 antibody diluted to 0.5 ml with sterile normal saline, was infused over 4 minutes using an HP infusion pump. The rat was allowed to move freely in its cage for 10 minutes to allow the antibody time to equilibrate within the circulation. Then the second sample, consisting of 43 μg ^14C-lysozyme made up to 0.5 ml using sterile normal saline, was infused over 4 minutes. The end of the second infusion was designated as time zero (0). Blood samples were taken and analyzed as described above.
To determine the pharmacokinetic profile of lysozyme using a radioactive method of lysozyme detection, ^14C-lysozyme was infused through a jugular cannula into the bloodstream of a rat. Lysozyme elimination was followed through blood sampling at various time intervals spanning 4 hours. The plasma was collected after centrifugation and subjected to scintillation counting. […] Each rat in these and in the following studies was used only once to limit the possibility of an immune response to either the lysozyme or the antibody.

[2] = Antibody buffering of lysozyme: free lysozyme in plasma after Protein A-Sepharose separation; type: in vivo, rat; conditions: lysozyme administered with D1.3, compared with lysozyme alone
Protocol: as §1
Following blood sample centrifugation to separate out the plasma, 0.1 ml of plasma was loaded onto a 1.5 ml Protein A-Sepharose mini-column. The column was washed with 3 ml of PBS in 0.5 ml increments followed by 3 ml of 100 mM citric acid in 0.5 ml increments. The PBS (free lysozyme) and citric acid (antibody-bound lysozyme) fractions were collected separately for each timepoint. […]

lysozyme: hen egg lysozyme radioactively labeled with 14C, model protein ligand
plasma β-half life of lysozyme ([1]; 14C-lysozyme administered alone, jugular infusion): 16.4 min
radioactivity in the cellular pellet of blood ([1]; 14C-lysozyme alone or with D1.3): Little radioactivity
plasma β-half life of lysozyme ([1]; 14C-lysozyme with equimolar D1.3): 42.8 min
plasma β-half life of lysozyme ([1]; 14C-lysozyme with two times the molar amount of D1.3): 61.3 min
total lysozyme level in plasma at later timepoints relative to equimolar group ([1]; D1.3 with ten times the molar concentration of 14C-lysozyme): about twice as high
total lysozyme concentration in plasma after sequential administration ([1]; equimolar lysozyme infused ten minutes after D1.3): quickly equilibrated to a level very similar to that attained when the D1.3 and lysozyme were administered together
free lysozyme pool in plasma [2]: remained at a more constant level
